From patent US20250163167A1 (SYNTHEKINE, published 2025) come the findings set out here.

B1: IL10R binding molecule of SEQ ID NO: 257 (bispecific antibody)
chain: QVQLQESGGGSVQAGGSLRLSCAASRYLYSIDYMAWFRQSPGKEREPVAVIYTASGATFYPDSVKGRFTISQDNAKMTVYLQMNSLKSEDTAMYYCAAVRKTDSYLFDAQSFTYWGQGTQVTVSSGGGSQVQLQESGGGSVQAGGSLRLSCAASGYTYSSYCMGWFRQAPGKEREGVAHIDSDGSTSYADSVKGRFTISKDNAKNTLYLQMNSLKPEDTAMYYCAADPIPGPGYCDGGPNKYWGQGTQVTVSSASHHHHHH
B2: IL10R binding molecule of SEQ ID NO: 275 (bispecific antibody)
chain: QVQLQESGGGSVQAGGSLRLSCAASGYTYSMYCMGWFRQAPGKEREGVAQINSDGSTSYADSVKGRFTISKDNAKNTLYLQMNSLKPEDTAMYYCAADSRVYGGSWYERLCGPYTYEYNYWGQGTQVTVSSGGGSQVQLQESGGGSVQAGGSLRLSCAASGYSYSSYCMGWFRQAPGKEREGVATIDSDGMTRYADSVKGRFTISKDNAKNTLYLQMNSLKPEDTAMYYCAAPLYDCDSGAVGRNPPYWGQGTQVTVSSASHHHHHH
B3: IL10R binding molecule of SEQ ID NO: 278 (bispecific antibody)
chain: QVQLQESGGGSVQAGGSLRLSCAVSGYAYSTYCMGWFRQAPGKEREGVAAIDSGGSTSYADSVKGRFTISKDNAKNTLYLRMNSLKPEDTAMYYCAAVPPPPDGGSCLFLGPEIKVSKADFRYWGQGTQVTVSSGGGSQVQLQESGGGSVQAGGSLRLSCAASGYTYSSYCMGWFRQAPGKEREGVAHIDSDGSTSYADSVKGRFTISKDNAKNTLYLQMNSLKPEDTAMYYCAADPIPGPGYCDGGPNKYWGQGTQVTVSSASHHHHHH
B4: IL10R binding molecule of SEQ ID NO: 277 (bispecific antibody)
chain: QVQLQESGGGSVQAGGSLRLSCAVSGYAYSTYCMGWFRQAPGKEREGVAAIDSGGSTSYADSVKGRFTISKDNAKNTLYLRMNSLKPEDTAMYYCAAVPPPPDGGSCLFLGPEIKVSKADFRYWGQGTQVTVSSGGGSQVQLQESGGGSVQAGGSLRLSCAASGYTYSSGCMGWFRQAPGKEREAVAAINSDGSTSYADSVKGRFTISKDNAKNTLYLQMNSLKPEDTAMYYCAAEPYCSGGYPRWSVAEFGYWGQGTQVTVSSASHHHHHH
B5: IL10R binding molecule of SEQ ID NO: 282 (bispecific antibody)
chain: QVQLQESGGGSVQAGGSLRLSCAVSGYAYSTYCMGWFRQAPGKEREGVAAIDSGGSTSYADSVKGRFTISKDNAKNTLYLRMNSLKPEDTAMYYCAAVPPPPDGGSCLFLGPEIKVSKADFRYWGQGTQVTVSSGGGSQVQLQESGGGSVQAGGSLRLSCAASGYSYSSYCMGWFRQAPGKEREGVATIDSDGMTRYADSVKGRFTISKDNAKNTLYLQMNSLKPEDTAMYYCAAPLYDCDSGAVGRNPPYWGQGTQVTVSSASHHHHHH
B6: IL10R binding molecule of SEQ ID NO: 274 (bispecific antibody)
chain: QVQLQESGGGSVQAGGSLRLSCAASGYTYSMYCMGWFRQAPGKEREGVAQINSDGSTSYADSVKGRFTISKDNAKNTLYLQMNSLKPEDTAMYYCAADSRVYGGSWYERLCGPYTYEYNYWGQGTQVTVSSGGGSQVQLQESGGGSVEAGGSLRLSCAASGYTHSSYCMGWFRQAPGKEREGVAAIDVDGSTTYADSVKGRFTISKDNAKNTLYLQMNSLKPEDTGMYYCAAEFADCSSNYFLPPGAVRYWGQGTQVTVSSASHHHHHH
B7: IL10R binding molecule of SEQ ID NO: 279 (bispecific antibody)
chain: QVQLQESGGGSVQAGGSLRLSCAVSGYAYSTYCMGWFRQAPGKEREGVAAIDSGGSTSYADSVKGRFTISKDNAKNTLYLRMNSLKPEDTAMYYCAAVPPPPDGGSCLFLGPEIKVSKADFRYWGQGTQVTVSSGGGSQVQLQESGGGSVQAGGSLRLSCAASRYTYNSYCMGWFRQAPGKEREGVATIDSDGMTRYADSVKGRFTISKDNAKNTLYLQMNSLKPEDTAMYYCAADADCTIAAMTTNPLGQGTQVTVSSASHHHHHH
B8: IL10R binding molecule of SEQ ID NO: 281 (bispecific antibody)
chain: QVQLQESGGGSVQAGGSLRLSCAVSGYAYSTYCMGWFRQAPGKEREGVAAIDSGGSTSYADSVKGRFTISKDNAKNTLYLRMNSLKPEDTAMYYCAAVPPPPDGGSCLFLGPEIKVSKADFRYWGQGTQVTVSSGGGSQVQLQESGGGSVEAGGSLRLSCAASGYTHSSYCMGWFRQAPGKEREGVAAIDVDGSTTYADSVKGRFTISKDNAKNTLYLQMNSLKPEDTGMYYCAAEFADCSSNYFLPPGAVRYWGQGTQVTVSSASHHHHHH
B9: IL10R binding molecule of SEQ ID NO: 283 (bispecific antibody)
chain: QVQLQESGGGSVQAGGSLRLSCAVSGYAYSTYCMGWFRQAPGKEREGVAAIDSGGSTSYADSVKGRFTISKDNAKNTLYLRMNSLKPEDTAMYYCAAVPPPPDGGSCLFLGPEIKVSKADFRYWGQGTQVTVSSGGGSQVQLQESGGGSVQTGGSLRLSCAASGYTYLRGCMGWFRQAPGKEREGVAVMDVVGDRRSYIDSVKGRFTISRDNAANSVYLQMDNLKPEDTAMYYCTAGPNCVGWRSGLDYWGQGTQVTVSSASHHHHHH
B10: IL10R binding molecule of SEQ ID NO: 284 (bispecific antibody)
chain: QVQLQESGGGSVQAGGSLRLSCTVSGYTYSSNCMGWFRQAPGKEREGVATIYTGGGNTYYADSVKGRFTISQDNAKNTVYLQMNNLKPEDTAMYYCAAEPLSRVYGGSCPTPTFDYWGQGTQVTVSSGGGSQVQLQESGGGSVQAGGSLRLSCAASGYTYSSGCMGWFRQAPGKEREAVAAINSDGSTSYADSVKGRFTISKDNAKNTLYLQMNSLKPEDTAMYYCAAEPYCSGGYPRWSVAEFGYWGQGTQVTVSSASHHHHHH
B11: IL10R binding molecule of SEQ ID NO: 280 (bispecific antibody)
chain: QVQLQESGGGSVQAGGSLRLSCAVSGYAYSTYCMGWFRQAPGKEREGVAAIDSGGSTSYADSVKGRFTISKDNAKNTLYLRMNSLKPEDTAMYYCAAVPPPPDGGSCLFLGPEIKVSKADFRYWGQGTQVTVSSGGGSQVQLQESGGGSVQAGGSLRLSCTVSRYTASVNYMGWFRQAPGKEREGVATIFTGAGTTYYANSVKGRFTISRDNAKNTAYLQMNSLKPEDTAIYYCAVDFRGGLLYRPAYEYTYRGQGTQVTVSSASHHHHHH
B12: IL10R binding molecule of SEQ ID NO: 276 (bispecific antibody)
chain: QVQLQESGGGSVQAGGSLRLSCAASGYTYSMYCMGWFRQAPGKEREGVAQINSDGSTSYADSVKGRFTISKDNAKNTLYLQMNSLKPEDTAMYYCAADSRVYGGSWYERLCGPYTYEYNYWGQGTQVTVSSGGGSQVQLQESGGGSVQTGGSLRLSCAASGYTYLRGCMGWFRQAPGKEREGVAVMDVVGDRRSYIDSVKGRFTISRDNAANSVYLQMDNLKPEDTAMYYCTAGPNCVGWRSGLDYWGQGTQVTVSSASHHHHHH

This test concerns the target T1, human IL-10 receptor (hIL-10R alpha and beta chains) on HEK-Blue IL-10 reporter cells (human, UniProt Q13651 22-578; Q08334 20-325).
T1 sequence 1: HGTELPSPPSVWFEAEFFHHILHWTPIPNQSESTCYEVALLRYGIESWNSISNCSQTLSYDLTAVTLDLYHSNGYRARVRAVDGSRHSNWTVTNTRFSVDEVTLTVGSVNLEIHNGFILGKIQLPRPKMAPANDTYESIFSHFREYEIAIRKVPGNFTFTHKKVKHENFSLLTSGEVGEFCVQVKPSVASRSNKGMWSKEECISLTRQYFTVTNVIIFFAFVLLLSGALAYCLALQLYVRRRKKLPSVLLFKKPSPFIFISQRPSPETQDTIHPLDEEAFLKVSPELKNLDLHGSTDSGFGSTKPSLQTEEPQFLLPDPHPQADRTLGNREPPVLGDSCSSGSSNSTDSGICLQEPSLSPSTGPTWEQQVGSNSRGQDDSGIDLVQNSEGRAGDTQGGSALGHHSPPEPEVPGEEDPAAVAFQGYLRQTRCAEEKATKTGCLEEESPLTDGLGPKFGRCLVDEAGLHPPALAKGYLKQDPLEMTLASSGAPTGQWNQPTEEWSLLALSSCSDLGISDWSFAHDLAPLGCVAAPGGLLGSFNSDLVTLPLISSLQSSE
T1 sequence 2: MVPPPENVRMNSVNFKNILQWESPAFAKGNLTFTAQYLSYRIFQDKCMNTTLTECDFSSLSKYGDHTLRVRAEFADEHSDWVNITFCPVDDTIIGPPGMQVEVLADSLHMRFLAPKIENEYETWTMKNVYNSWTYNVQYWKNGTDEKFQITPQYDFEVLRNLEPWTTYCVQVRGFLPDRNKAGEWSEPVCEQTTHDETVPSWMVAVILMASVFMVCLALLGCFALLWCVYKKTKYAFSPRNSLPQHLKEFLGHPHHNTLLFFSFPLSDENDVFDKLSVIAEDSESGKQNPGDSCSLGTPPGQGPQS
Description: cell-based or functional assay.
On to B1, for which the “Abs 630 (25 nM)” value was determined as 0.45 Abs 630 and the “Abs 630 (100 nM)” value was 0.36 Abs 630.
The matching figures for B2: 0.51 Abs 630 and 0.36 Abs 630.
For B3 the same measures were 1.61 Abs 630 and 1.18 Abs 630.
The matching figures for B4: 1.19 Abs 630 and 1 Abs 630.
Consider B5, for which the “Abs 630 (25 nM)” value was found to be 0.44 Abs 630 and the “Abs 630 (100 nM)” value came out at 0.36 Abs 630.
As for B6, the “Abs 630 (25 nM)” value was determined as 0.46 Abs 630 and the “Abs 630 (100 nM)” value is 0.37 Abs 630.
As to B7, the “Abs 630 (25 nM)” value stood at 0.49 Abs 630 and the “Abs 630 (100 nM)” value came to 0.39 Abs 630.
For B8 the same measures were 0.66 Abs 630 and 0.69 Abs 630.
The matching figures for B9: 0.48 Abs 630 and 0.39 Abs 630.
The matching figures for B10: 0.45 Abs 630 and 0.34 Abs 630.
Regarding B11, the “Abs 630 (25 nM)” value came to 0.49 Abs 630 and the “Abs 630 (100 nM)” value is 0.37 Abs 630.
The matching figures for B12: 0.46 Abs 630 and 0.36 Abs 630.
